Here are results for seven molecules from patent US20120128689A1 (GlaxoSmithKline, published 2012).

In test [1] the target is T1, human IL-23 (human, UniProt Q9NPF7 20-189; P29460 23-328).
T1 construct: Heterodimer of p19 and p40; also called hIL-23
T1 sequence 1: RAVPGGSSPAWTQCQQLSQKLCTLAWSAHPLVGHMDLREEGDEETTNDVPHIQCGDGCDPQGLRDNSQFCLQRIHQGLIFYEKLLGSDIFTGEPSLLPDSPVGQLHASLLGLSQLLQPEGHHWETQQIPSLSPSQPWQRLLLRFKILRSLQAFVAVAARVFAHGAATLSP
T1 sequence 2: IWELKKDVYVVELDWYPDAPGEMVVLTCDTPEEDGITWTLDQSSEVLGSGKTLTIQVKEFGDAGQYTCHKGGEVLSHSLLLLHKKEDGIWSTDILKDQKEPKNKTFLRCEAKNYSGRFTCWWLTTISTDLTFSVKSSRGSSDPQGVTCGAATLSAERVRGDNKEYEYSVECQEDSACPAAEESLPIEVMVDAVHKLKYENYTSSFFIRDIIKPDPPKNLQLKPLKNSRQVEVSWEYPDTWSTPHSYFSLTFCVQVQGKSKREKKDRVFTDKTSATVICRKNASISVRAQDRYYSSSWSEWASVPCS
Kind of test: inhibition ELISA: antibody pre-incubated with a constant concentration of human IL-23, IL-23 bound to plate-coated human IL23R Fc chimera detected with biotinylated anti-human IL12, OD450. Here is the method: Plates were coated with human IL23R Fc chimera at […] (phosphate buffered saline). 50 μl/well of this mixture was incubated overnight at 4° C. The plates were then washed three times with Phosphate Buffered Saline with 0.05% Tween 20 (PBST). Plates were blocked with 4% skim milk powder (Fluka BioChemika #70166) PBST 100 μl/well for a minimum of 1 hour at room temperature. The plates were then washed three times with Phosphate Buffered Saline+0.05% Tween 20 (PBST). Various concentrations of antibody were incubated in a separate plate with a constant concentration of IL-23 for 1 hour at room temperature. 50 ul of each mixture were transferred to the assay plate and incubated at RT for 1 hr. They were then washed three times with Phosphate Buffered Saline+0.05% Tween 20 (PBST). Bound IL23 was detected by anti human IL12 Biotin labelled Ab (R&D systems BAF219) diluted to 100 ng/ml in 4% skim milk powder (Fluka BioChemika #70166) PBST. 50 μl/well of the biotinylated antibody was added and incubated at RT for 1 hour. The plates were then washed three times with Phosphate Buffered Saline+0.05% Tween 20 (PBST). SA HRP (GE healthcare RPN4401) was diluted 1/4000 in 4% skim milk powder (Fluka BioChemika #70166) PBS, 50 μl/well was added to the plates. The plates were then washed three times with Phosphate Buffered Saline+0.05% Tween 20 (PBST). 50 ul/well of TMB was added to the plates and incubated at RT for 15 min. 25 μl/well of 3 MH₂SO₄ was added to the wells already containing TMB. The plate was read at OD450 nm using the SOftmaxPRO versamax plate reader.

In test [2] the target is T1, human IL-23. Kind of test: SPR Biacore, purified mAb captured on anti-human IgG, human IL-23 64-0.062 nM. The procedure: (§1) An anti-human IgG (Biacore BR-1008-39) was immobilised on a Biacore CM5 chip by primary amine coupling in accordance with the manufacturer's instructions. Anti IL-23 antibodies were captured on this surface and after a period of stabilisation, IL-23 (cyno or human) was passed over the antibody captured surface and a binding sensorgram was obtained. […] All runs were double referenced with a buffer injection over the captured antibody surface. Data was analysed using the 1:1 model using the software inherent to the Biacore T100. Analysis was carried out at 25° C. using HBS-EP buffer. Data presented in Tables 1 and 2 are on tissue culture supernatants of HEK cells transiently expressing the antibody of interest unless otherwise indicated.
(§2) This experiment was repeated with purified IL-23 antibodies and data shown in Table 3 was generated using 64, 16, 4, 1, 0.25 and 0.062 nM concentrations of human and cyno IL-23.

Test [3] deals with T2, cyno IL-23 (cyno, limits assumed).
T2 construct: Heterodimer of p19 and p40; also called cynomolgus IL-23
T2 chain 1: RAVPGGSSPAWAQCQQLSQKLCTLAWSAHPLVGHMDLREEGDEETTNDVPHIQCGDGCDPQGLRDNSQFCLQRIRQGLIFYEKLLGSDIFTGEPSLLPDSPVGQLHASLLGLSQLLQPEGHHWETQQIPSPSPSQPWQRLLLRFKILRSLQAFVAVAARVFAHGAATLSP
T2 chain 2: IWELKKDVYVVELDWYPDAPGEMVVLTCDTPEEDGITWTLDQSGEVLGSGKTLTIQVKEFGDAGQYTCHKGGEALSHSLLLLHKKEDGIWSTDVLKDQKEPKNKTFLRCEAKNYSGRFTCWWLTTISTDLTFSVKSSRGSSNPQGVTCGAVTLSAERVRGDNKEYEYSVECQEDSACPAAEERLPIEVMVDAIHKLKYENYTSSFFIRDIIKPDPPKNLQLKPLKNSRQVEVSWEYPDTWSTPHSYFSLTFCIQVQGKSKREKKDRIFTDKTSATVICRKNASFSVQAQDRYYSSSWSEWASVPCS
Kind of test: SPR Biacore T100, mAb from HEK supernatant captured on anti-human IgG, one concentration of cyno IL-23 (256 nM). The procedure: as §1
(In general: SPR reads the build-up and loss of mass on a sensor chip optically.)

The target in test [4] is T1, human IL-23. Kind of test: cell-based or functional assay.
Test [5] concerns the target T1, human IL-23. Kind of test: SPR Biacore T100, mAb from HEK supernatant captured on anti-human IgG, human IL-23 64-0.062 nM. The procedure:
as §1

Test [6] deals with T2, cyno IL-23. Kind of test: SPR Biacore, purified mAb captured on anti-human IgG, cyno IL-23 64-0.062 nM. Here is the method:
as §1, §2

B1: A5M20 (antibody, human IgG1, kappa, V domains shown)
VH: QVQLVQSGAEVKKPGSSVKVSCKASGYTFTSYGITWVRQAPGQGLEWMGENYPRSGNTYYNEKFKGRVTITADKSTSTAYMELSSLRSEDTAVYYCARAEFISTVVAPYYYALDYWGQGTLVTVSS
VL: DIVMTQSPDSLAVSLGERATINCKASKKVTIFGSISALHWYQQKPGQPPKLIYNLAKLESGVPDRFSGSGSGTDFTLTISSLQAEDVAVYYCLQNKEVPYTFGGGTKVEIKR
By Kd is commonly meant the free concentration of one partner at which half of the binding sites on the other are occupied at equilibrium, for simple one-to-one binding. Read a high Kd as weaker binding. The term koff denotes the first-order rate constant of dissociation. A lower koff goes with slow dissociation. Usually kon stands for the rate constant with which the complex forms. High values mean faster complex formation, low ones slower complex formation. For B1, the “IC50 (read off the curve)” value with human IL-23 [1] is ~0.2 nM. The dissociation constant Kd with human IL-23 [2] turned out to be 0.061 nM; with cyno IL-23 [3], 0.115 nM; with human IL-23 [5], 0.066 nM; in the test with cyno IL-23 [6], 0.086 nM. The off-rate (koff) with human IL-23 [2] was 0.00014 s⁻¹; with cyno IL-23 [3] it was 0.000306 s⁻¹; with human IL-23 [5] it was 0.000159 s⁻¹; in the test with cyno IL-23 [6], 0.000176 s⁻¹. The kon with human IL-23 [2] worked out at 2.29e+06 M⁻¹ s⁻¹; with cyno IL-23 [3] it was 2.66e+06 M⁻¹ s⁻¹; in the test with human IL-23 [5] it was 2.41e+06 M⁻¹ s⁻¹; in the test with cyno IL-23 [6], 2.05e+06 M⁻¹ s⁻¹. Moreover, the “IC50 (inhibition of IL-23 driven STAT3 phosphorylation in human activated T cell blasts)” value in the test with human IL-23 [4] came to 0.0685 nM.

B2: A5M12 (antibody, human IgG1, V domains shown)
VH: QVQLVQSGAEVKKPGSSVKVSCKASGYTFTSYGITWVRQAPGQGLEWMGENYPRSGNTYYNEKFKGRVTITADKSTSTAYMELSSLRSEDTAVYYCARAEFISTVVAPYYYALDYWGQGTLVTVSS
VL: DIVMTQSPDSLAVSLGERATINCKASKKVTIYGSTSALHWYQQKPGQPPKLIYNGAKPESGVPDRFSGSGSGTDFTLTISSLQAEDVAVYYCLQNKEVPYTFGGGTKVEIK
Take B2: the “IC50 (read off the curve)” value with human IL-23 [1] was ~0.2 nM. In the test with human IL-23 [2], this molecule registered a Kd of 0.08 nM, a dissociation rate constant (koff) of 0.000132 s⁻¹ and an on-rate constant (kon) of 1.66e+06 M⁻¹ s⁻¹. In addition, in the test with cyno IL-23 [6], the equilibrium dissociation constant (Kd) worked out at 0.093 nM, the off-rate (koff) came out at 0.000134 s⁻¹ and the kon came out at 1.45e+06 M⁻¹ s⁻¹.

B3: A5M21 (antibody, human IgG1, kappa, V domains shown)
VH: QVQLVQSGAEVKKPGSSVKVSCKASGYTFTSYGITWVRQAPGQGLEWMGENYPRSGNTYYNEKFKGRVTITADKSTSTAYMELSSLRSEDTAVYYCARAEFISTVVAPYYYALDYWGQGTLVTVSS
VL: DIVMTQSPDSLAVSLGERATINCKASKKVTIYGSTSALHWYQQKPGQPPKLIYNLAKPESGVPDRFSGSGSGTDFTLTISSLQAEDVAVYYCLQNKEVPYTFGGGTKVEIKR
B3: the “IC50 (read off the curve)” value with human IL-23 [1] is ~0.2 nM. Also, the Kd was 0.064 nM with human IL-23 [2], 0.169 nM with cyno IL-23 [3], 0.065 nM with human IL-23 [5] and 0.075 nM with cyno IL-23 [6]. For the same molecule, the off-rate (koff) with human IL-23 [2] stood at 0.000112 s⁻¹; with cyno IL-23 [3] it was 0.000123 s⁻¹; in the test with human IL-23 [5], 0.000113 s⁻¹; in the test with cyno IL-23 [6] it was 0.00012 s⁻¹. The kon with human IL-23 [2] came out at 1.74e+06 M⁻¹ s⁻¹; with cyno IL-23 [3], 727000 M⁻¹ s⁻¹; with human IL-23 [5] it was 1.73e+06 M⁻¹ s⁻¹; with cyno IL-23 [6], 1.6e+06 M⁻¹ s⁻¹. Further, in the test with human IL-23 [4], the “IC50 (inhibition of IL-23 driven STAT3 phosphorylation in human activated T cell blasts)” value was found to be 0.0384 nM.

B4: A3M18 (antibody, human IgG1, kappa, V domains shown)
VH: QVQLVQSGAEVKKPGSSVKVSCKASGYTFTSYGITWVRQAPGQGLEWMGENYPRSGNTYYNEKFKGRVTITADKSTSTAYMELSSLRSEDTAVYYCARSEFISTVVAPYYYALDYWGQGTLVTVSS
VL: DIVMTQSPDSLAVSLGERATINCKASKKVTIFGSTSALHWYQQKPGQPPKLIYNLAKPESGVPDRFSGSGSGTDFTLTISSLQAEDVAVYYCLQNKEVPYTFGGGTKVEIKR
Turning to B4, in the test with cyno IL-23 [3], the Kd came out at 0.185 nM, the off-rate (koff) was 0.000163 s⁻¹ and the kon was 883000 M⁻¹ s⁻¹. In the test with human IL-23 [5], this molecule registered a Kd of 0.066 nM, a koff of 0.000115 s⁻¹ and an association rate constant (kon) of 1.73e+06 M⁻¹ s⁻¹.

B5: A6M20 (antibody, human IgG1, kappa, V domains shown)
VH: QVQLVQSGAEVKKPGSSVKVSCKASGYTFTSYGITWVRQAPGQGLEWMGENYPRSGNTYYNEKFKGRVTITADKSTSTAYMELSSLRSEDTAVYYCARVEFISTVVAPYYYALDYWGQGTLVTVSS
VL: DIVMTQSPDSLAVSLGERATINCKASKKVTIFGSISALHWYQQKPGQPPKLIYNLAKLESGVPDRFSGSGSGTDFTLTISSLQAEDVAVYYCLQNKEVPYTFGGGTKVEIKR
In the test with cyno IL-23 [3], B5 came in with a dissociation constant (Kd) of 0.136 nM, a koff of 0.000497 s⁻¹ and an on-rate constant (kon) of 3.65e+06 M⁻¹ s⁻¹. In the test with human IL-23 [5], binding was put at a Kd of 0.078 nM, the koff is 0.000205 s⁻¹ and the kon was 2.62e+06 M⁻¹ s⁻¹.

B6: A5M0 (antibody, human IgG1, kappa, V domains shown)
VH: QVQLVQSGAEVKKPGSSVKVSCKASGYTFTSYGITWVRQAPGQGLEWMGENYPRSGNTYYNEKFKGRVTITADKSTSTAYMELSSLRSEDTAVYYCARAEFISTVVAPYYYALDYWGQGTLVTVSS
VL: DIVMTQSPDSLAVSLGERATINCKASKKVTIFGSISALHWYQQKPGQPPKLIYNGAKLESGVPDRFSGSGSGTDFTLTISSLQAEDVAVYYCLQNKEVPYTFGGGTKVEIKR
Turning to B6, the “IC50 (read off the curve)” value with human IL-23 [1] is ~0.3 nM. In addition, in the test with human IL-23 [2], the equilibrium dissociation constant (Kd) was 0.114 nM, the dissociation rate constant (koff) was 0.000175 s⁻¹ and the on-rate constant (kon) was found to be 1.54e+06 M⁻¹ s⁻¹. Moreover, in the test with cyno IL-23 [6], the dissociation constant (Kd) was found to be 0.173 nM, the koff stood at 0.000224 s⁻¹ and the kon turned out to be 1.3e+06 M⁻¹ s⁻¹.

B7: A24AM4 (antibody, human IgG1, kappa, V domains shown)
VH: QVQLVQSGAEVKKPGSSVKVSCKASGYTFTSYGITWVRQAPGQGLEWMGENYPRSGNIYYNEKFKGRVTITADKSTSTAYMELSSLRSEDTAVYYCARAEFISTVVAPYYYALDYWGQGTLVTVSS
VL: DIVMTQSPDSLAVSLGERATINCKASKKVTIFGSTSALHWYQQKPGQPPKLIYNGAKPESGVPDRFSGSGSGTDFTLTISSLQAEDVAVYYCLQNKEVPYTFGGGTKVEIKR
Regarding B7, the “IC50 (read off the curve)” value in the test with human IL-23 [1] is ~0.2 nM. In the test with human IL-23 [2], this molecule returned a Kd of 0.065 nM, an off-rate (koff) of 0.000132 s⁻¹ and a kon of 2.02e+06 M⁻¹ s⁻¹. Also, in the test with cyno IL-23 [6], the Kd was 0.085 nM, the koff stood at 0.000147 s⁻¹ and the kon came out at 1.74e+06 M⁻¹ s⁻¹.
